According to the supplement of paper PMC9170038:

What was measured:
MS2 coat protein [1] = assay: apparent KD of MS2 coat protein, switch OFF state (with FMN for OFF switches, without FMN for ON switches); designed switch direction (-1 OFF switch, 1 ON switch): 1; higher = weaker reporter binding; settings: FMN input: 0 or 200 uM; Eterna round: R93 (includes R88 designs)
Outline: (§1)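 Apparent KD per design is the median of normalised cluster binding-curve fits. Designed RNA switches transcribed on-chip from Illumina sequencing clusters were titrated with SNAP-549-labelled MS2 coat protein in twofold steps from 0.7 or 1.5 nM to 3 µM, with 0.8–1.5 h down to 10–20 min per step. Buffer: 100 mM Tris-HCl pH 7.5, 80 mM KCl, 4 mM MgCl2, without or with constant ligand.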

MS2 coat protein [2] = assay: apparent KD of MS2 coat protein, switch ON state; designed switch direction (-1 OFF switch, 1 ON switch): 1; higher = weaker reporter binding; settings: FMN input: 0 or 200 uM; Eterna round: R93 (includes R88 designs)
Outline: as §1

Sequence	apparent KD of MS2 coat protein (MS2 coat protein [1])	apparent KD of MS2 coat protein (MS2 coat protein [2])
AAACAACAUGAGGAUCACCCAUGUCAAACAAAUCGAGGAUAUGGGCAGGAUUCUUCCUAACUAGAAGGCGAAAACA [Esmatidi]	29.8 nM	164 nM
AAUCCAACUAGUCAGGAUAUCAGGCGUAAGACAUGAGGAUCACCCAUGUCCUAAGAACAAGUAACUGAGAAGGGACAGGGCGACC [JR_SS002_Sub411]	62 nM	57.6 nM
AAAAAACAUGAGGAUCACCCAUGUAAAAAAAACACAGGAUAUCCCUUUAAAAAAAAAAAAGGAGAAGGGUGAAAAA [Nob's Hobby 4 - Jieux - Same State 1]	23.4 nM	20.4 nM
AACAAUCUAUCUGAGGAUAUCAUGUCAAAGACAUGAGGAUCACCCAUGUACCAGGAAACUGGUUAUGAGAAGGCAGAUAGAUUGA [SS2: 1115]	1290 nM	37.3 nM
AAAAACACGGUGCAGGAUAUAUUAAUAGUCACAUGAGGAUCACCCAUGUUCAUUUAUAUGAACGAGUAGAAGGGCGGUGAAAAAA [Mat - Same state - Malcolm Mod - D112]	148 nM	172 nM
GUCAGGAAGAGAGAGGAUAUCCAAAGGAAAACAUGAGGAUCACCCAUGUAAAAGGUAGGAAAUUGGGAGAAGGCUCAAGAGAGAG [salish99-ss2-095]	48.8 nM	31.5 nM
AAAGAAGAAAGCGAGGAUAUGGAUGGGUAAACAUGAGGAUCACCCAUGUAUAAGAAAGAAAGAAACCAGAAGGCGCAAAAGAAAA [Khenemmaatre Hakor]	93.7 nM	70 nM
AACAGACAUGAGGAUCACCCAUGUAGAAUUAUGGGAGGAUAUACAAAGACGAGAGUCAGAGUAGAAGGCCUAGGAG [salish99-ss1-162]	44.3 nM	22.1 nM
AUGAGGAAGAGAGAGGAUAUCCAAAGGAAAACAUGAGGAUCACCCAUGUAAAAGGUAGGAAAUUGGGAGAAGGCUCAAGAGAGAG [salish99-ss2-065]	44.7 nM	23.4 nM
AACAAUCUAUCUGAGGAUAUGUGUCGAAAGACAUGAGGAUCACCCAUGUCAAAACAUGGAAAGAUACAGAAGGCAGAUAGAUUGA [SS2: 1158]	11.9 nM	8.33 nM
GAAAAACAUGAGGAUCACCCAUGUGUAAACACGGGAGGAUAUACAAAGACGUAAGUCAAAGUAGAAGGCCUAAAAG [Garnet 39]	96.5 nM	26.7 nM
AAUACACAUAGUCAGGAUAUCAAAACUAAGACAUGAGGAUCACCCAUGUAAUAAGUAAAAGUAAAUGAGAAGGGACAGGGUGACC [JR_SS002_Sub404]	63.9 nM	130 nM
GUUAGGAAGAGAGAGGAUAUCCAAAGGAAAACAUGAGGAUCACCCAUGUAAAAGGUAGGAAAUUGGGAGAAGGCUCAAGAGAGAG [salish99-ss2-079]	37.5 nM	31.9 nM
AACAAUCUAUCUGAGGAUAUGUGUCGAAAGACAUGAGGAUCACCCAUGUCAAAACAUGGGAAGAUACAGAAGGCAGAUAGAUUGA [SS2: 1159]	417 nM	79.9 nM
AUAUGAGCUAAUGAGGAUAUCCAUAAUAAGACAUGAGGAUCACCCAUGUAAACAAAACAAUAAUGGGAGAAGGCAUUAGCUCAAU [SS 2 M49]	58.8 nM	45.7 nM
AACAAUCUAUCUGAGGAUAUCAUAUAAAAGACAUGAGGAUCACCCAUGUAGCAGGAAACUGCAUAUGAGAAGGCAGAUAGAUUGA [SS2: 1121]	10.8 nM	7.5 nM
ACAAACAAAAAAGAGGAUAUCCUAAAUAAAACAUGAGGAUCACCCAUGUAAAAAAUAAUAAAAUGGGAGAAGGCUUACAACAAAC [SS2 M 24]	21 nM	15.6 nM
AACAAUCUAUCUGAGGAUAUGAUGUCAAAGACAUGAGGAUCACCCAUGUGCAGGAAAACUGCAUAUCAGAAGGCAGAUAGAUUGA [SS2: 1103]	18.4 nM	15.6 nM
UAAAAACAUGAGGAUCACCCAUGUAGAAAUAUGGGAGGAUAUACGAAGACGAAAGUCAAAGUAGAAGGCCUAAAAU [Mat - Same State 1 - Eli mod - D104]	58 nM	21.8 nM
AAAAAACAUGAGGAUCACCCAUGUCCUCGGACAUGAGGAUAUGUACAGACUUCGGUCUGUACAGAAGGCAUGAAAA [SS1 - 1014]	756 nM	713 nM
AAGAAACAUGAGGAUCACCCAUGUAAGAAUAUGGGAGGAUAUACAAGGACAAGAGUCAAGGUAGAAGGCCUAAGAA [Mat - Same State 1 - Meechl mod - D143]	118 nM	33 nM
ACAAACAAAAGAGAGGAUAUCCAAAAGAAAACAUGAGGAUCACCCAUGUGAAAGAAAAUAAAAUGGGAGAAGGCUCAGAACAACA [Topaz 28]	46.2 nM	29.2 nM

Sequence	apparent KD of MS2 coat protein (MS2 coat protein [1])	apparent KD of MS2 coat protein (MS2 coat protein [2])
GAAAAACAUGAGGAUCACCCAUGUAGAAAUAUGGGAGGAUAUACAAUGACGAAAGUCAAUGUAGAAGGCCUGAUAG [JL S1 M-MoE mod 4]	74.2 nM	25.7 nM
GACGGACAUGAGGAUCACCCAUGUCGGAAAAGGCAAGGAUAUGGGCGGUACCAAUUUCGGUCAGAAGGUGCAAAAG [Beenedriar]	61 nM	117 nM
GAGGACAUAGUAUAGGAUAUAUGAAUAAUUACAUGAGGAUCACCCAUGUGCAUUUAUAUGCGAACAUAGAAGGGUGGUAGUUAUC [SameState2 Malc#32]	37 nM	41.6 nM
AAGAAACAUGAGGAUCACCCAUGUGAGAUAAACACAGGAUAUGCGAAAAGAAACAAAGAAGCAGAAGGGUGAAGAA [Mat - Same State 1 - Tesla mod - 55]	126 nM	34.9 nM
GAAAAACAUGAGGAUCACCCAUGUAGAAAUAUGGGAGGAUAUACGAACUCGAAAGUCAAAGUAGAAGGCCUAAAAG [Garnet 30]	130 nM	47 nM
GUAGACAUAGUUCAGGAUAUAUGAAUAGUCACAUGAGGAUCACCCAUGUGCAUUUAUAUGCGCACAUAGAAGGGAGGUAGUUAAC [Mat - Same state - Malcolm Mod - D122]	20.7 nM	22.3 nM
AAAAAACAUGAGGAUCACCCAUGUGAAAAUAUGGAAGGAUAUACCGAAAAAAAAAAAAAGGUAGAAGGUCUAAAAA [SS! 1 MT 4]	32.3 nM	23 nM
AAAAAUCCAGCGCAGGAUAUCGCAGGGUGCACAUGAGGAUCACCCAUGUGUACCCAAACACCCUGCGAGAAGGGCGUUGGAAAAAA [SameState-I]	11.1 nM	9.65 nM
AAAAGACAUGAGGAUCACCCAUGUAAAAACAUGGGAGGAUAUGCAUGGAAAACAUGCUGUGCAGAAGGCUCAUGUC [SS1 - 18]	25.5 nM	40 nM
AUAAAACAUGAGGAUCACCCAUGUAGAAAUAUGGGAGGAUAUACAAAGACGAAAGUCAAGGUAGAAGGCCUAAAAG [Mat - Same State 1 - Meechl mod - D118]	47.4 nM	39.1 nM
ACUAUACAUGAGGAUCACCCAUGUCAGGUGGGACUAGGAUAUCAAAAGCCAGAGUAAGAAUGAGAAGGAGUAGAAA [JR_SS001_Sub304]	69.3 nM	66.4 nM
AAAAGACAUGAGGAUCACCCAUGUAAAAACGUAGGAGGAUAUGUAUGGAAACCAGACUGUACAGAAGGCCUCUGUC [SS1 - 72]	21.1 nM	22.2 nM
AUUAAACAUGAGGAUCACCCAUGUGGCAAAAGCACAGGAUAUAGGAGUCCGAGCAGACAACUAGAAGGGUGGAAAA [Rixelexe]	53.7 nM	28.8 nM
AACAAUCUAUCUGAGGAUAUGUGUCAAAAGACAUGAGGAUCACCCAUGUAAAAACAUGGGAAAACACAGAAGGCAGAUAGAUUGA [SS2: 1151]	184 nM	369 nM
AUAAAACAUGAGGAUCACCCAUGUCAACAAAGUCGAGGAUAUGGGCAAAUAAAAUAAGAACCAGAAGGCGAAUAAU [Teenbexe]	593 nM	32.2 nM
AACAAUCUAUCUGAGGAUAUCAUUUCAAAGACAUGAGGAUCACCCAUGUGCAGGAAAACUGCAAAUGAGAAGGCAGAUAGAUUGA [SS2: 1107]	14.5 nM	10.3 nM
AAAAAACAUGAGGAUCACCCAUGUCGAAAGACGUGAGGAUAUGUACAGACUUCGGUCUGUACAGAAGGCAUGUAAA [SS1 - 1054]	1110 nM	146 nM
GAAAAACAUGAGGAUCACCCAUGUAAAAAAAUGGGAGGAUAUACAAAGACGAAAGUCAAAGUAGAAGGCCUGAAAG [same state 2]	81.8 nM	18 nM
AGGAGACAUGAGGAUCACCCAUGUGAGAAGAGGCGAGGAUAUCGAAAGAAAGAAGAGAAACGAGAAGGCGCGAGCC [salish99-SS1-032]	28.8 nM	28.1 nM
AAAAAACAUGAGGAUCACCCAUGUGAGAACAUGGGAGGAUAUACAAGGACGAGAGUCAAAGUAGAAGGCCUAAAAA [Garnet 65]	29.9 nM	155 nM
CGAAGACAUGAGGAUCACCCAUGUGGGAAUAUGGGAGGAUAUACAAAGACGAGAGUCAGAGUAGAAGGCCUAGGAG [salish99-ss1-106]	59.3 nM	40.2 nM
CUGGACAUAGUACAGGAUAUAUGAAUAGUCACAUGAGGAUCACCCAUGUGCAUUUAUAUGCGCACAUAGAAGGGUGGUAGUUAAG [Mat - Same state - Malcolm Mod - D140]	57.9 nM	180 nM
